B1: OR4K15 (parent)
chain: GUUAACGGUCAUAGGCCAUGGAAACUAGGAGCACCAUUUCGCUGCCAGUGAAGAAAUGAACAAAGAAAAUCUGGGCCAGGCAGGCAUCAAAAGAAAUAGUCUUGCGCUCAACCAGAAAGUCUGUAAUCAUUUUAAGGGUA

Variants of: B1
Test: self-cleavage, relative activity (ratio to wild type); higher = more cleavage; in vitro, sequencing; the parent is a self-cleaving ribozyme

| Variant | self-cleavage |
| --- | --- |
| G8A U108A | 0.05 |
| U9C A67C | 1.31 |
| U9C A67G | 1.85 |
| U9C U39C | 1.45 |
| U9C U39A | 1.33 |
| U9A A126G | 0.57 |
| U9A U38C | 1.05 |
| U9G U130C | 0.7 |
| U9C U132A | 1.85 |
| G7U A86U | 1.63 |
| U9G C45G | 0.5 |
| A11G A56G | 0.35 |
| U9A U108C | 0.03 |
| U9A A56G | 1.3 |
| C10A A110G | 0.31 |
| U9C A11C | 1.71 |
| U9C A11G | 0.85 |
| U9C A55G | 1.28 |
| U9G U12C | 0.29 |
| A11G A23G | 1.1 |
| U9A A82G | 1.13 |
| U9A A82U | 0.12 |
| A11G A55G | 0.92 |
| G8A A18U | 0.97 |

| Variant | self-cleavage |
| --- | --- |
| U9G U108C | 0.05 |
| C10U U38A | 0.84 |
| A11C A63G | 1.91 |
| U9C C35A | 1.71 |
| U9A U127A | 0.66 |
| U9A U127C | 1.05 |
| A11G A89G | 0.59 |
| A11G A89U | 1.34 |
| A11C A110U | 1.76 |
| G7A U133A | 0.79 |
| C10U U100C | 2.44 |
| U9C G123A | 2.14 |
| G8A A117U | 1.67 |
| G8A A118G | 1.28 |
| U9C A98G | 0.22 |
| G7U U122A | 1.64 |
| U9C A78G | 0.32 |
| U9C A86U | 1.74 |
| U9C U49A | 1.56 |
| U9C U49C | 1.67 |
| U9C U49G | 0.96 |
| G8A A68G | 2.15 |
| G7U U26C | 2.12 |
| U9A A86U | 1.37 |

| Variant | self-cleavage |
| --- | --- |
| U9A A62G | 0.45 |
| U9A A62U | 0.88 |
| G7U C77A | 0.23 |
| U9C A69G | 1.38 |
| G8A A27G | 1.84 |
| U9C A96U | 1.72 |
| G7U A18G | 1.68 |
| G7A A27U | 0.85 |
| C10U U39A | 0.81 |
| C6U U130C | 0.74 |
| C6U U130G | 0.44 |
| U9C U19A | 1.65 |
| U9C U19C | 1.77 |
| C10G A60G | 0.77 |
| U9C A64G | 1.52 |
| U9A U132C | 0.79 |
| U9C G21A | 1.38 |
| U9C C40U | 1.45 |
| C6U U131C | 0.08 |
| C10U U120C | 1.12 |
| G7U G21A | 0.87 |
| A11G A82G | 0.55 |
| G7A A67G | 1.61 |
| G7A A54G | 0.81 |

| Variant | self-cleavage |
| --- | --- |
| U9C G41U | 1.55 |
| A11C U103C | 0.98 |
| U9C A56G | 1.24 |
| G7A A13U | 1.19 |
| A11C U97C | 1.26 |
| G7U A52G | 1.83 |
| U9A A36G | 1.59 |
| C10U A86G | 0.7 |
| U9A C34U | 0.55 |
| G8A A52G | 2.73 |
| G7A A63G | 1.86 |
| G7A A24G | 1.4 |
| U9A U57C | 1.02 |
| A11C U38C | 1.72 |
| U9A A117G | 2.34 |
| C10A U127C | 0.84 |
| U9A A78U | 0.15 |
| U9A A78G | 0.32 |
| C10U A90C | 0.97 |
| C6U U127C | 0.57 |
| U9A A54G | 1.42 |
| G8U A126G | 0.32 |
| G7U U38C | 0.4 |
| G8A A23G | 1.58 |

| Variant | self-cleavage |
| --- | --- |
| U9C C81U | 0.36 |
| G7U A11G | 1.63 |
| G7U A118G | 1.38 |
| A11C U43C | 2.23 |
| U9C U43G | 2.16 |
| U9C U43A | 1.24 |
| G8A A69G | 1.29 |
| U9C U26C | 1.06 |
| U9C A95G | 1.88 |
| U9A U39C | 0.86 |
| U9C G74U | 0.15 |
| G7U A13G | 1.41 |
| G8U U108A | 0 |
| G8C A52C | 2.89 |
| G7A U127C | 1.29 |
| U9A C32U | 1.2 |
| G7A A23G | 0.87 |
| A11G A27G | 1.1 |
| U9C A51U | 2.13 |
| U9G A89U | 1.03 |
| C10U C77U | 0.98 |
| G7C A91G | 0.76 |
| C6U U108C | 0.08 |
| C10U U57C | 1.03 |

| Variant | self-cleavage |
| --- | --- |
| C10U A22U | 1.21 |
| U9C A13G | 0.81 |
| A11G A36U | 1.12 |
| U9A A23G | 0.95 |
| U9C A23G | 1.02 |
| U9C A134G | 1.55 |
| G8U A69G | 2.76 |
| U9C A118G | 1.32 |
| U9C A118U | 0.88 |
| A11G A24G | 1.02 |
| A11G A24C | 1.51 |
| A11G A24U | 0.53 |
| U9G A69G | 1 |
| A11C A91G | 1.67 |
| U9C U72C | 0.2 |
| U9C U38A | 1.98 |
| U9C U38C | 1.7 |
| C10U A118G | 0.33 |
| U9G A59G | 1 |
| A11G A54U | 1.09 |
| G7U A91G | 0.72 |
| G8A A134G | 1.52 |
| G7U U130C | 1.45 |
| U9C G48A | 0.64 |

| Variant | self-cleavage |
| --- | --- |
| A11G A69G | 0.99 |
| A11G A69U | 1 |
| U9A U139C | 1.69 |
| G8C A110G | 0.26 |
| U9C A117U | 1.04 |
| U9C A117G | 1.91 |
| U9C U12A | 1.59 |
| U9C U12C | 1.27 |
| U9C C17U | 1.8 |
| G7A C112U | 0.02 |
| G7A A60G | 2.29 |
| G8A A47C | 1.67 |
| U9C G106U | 0 |
| U9C G106A | 0.01 |
| C10A C77U | 1.18 |
| G7U A66G | 1.42 |
| A11G A98G | 0.33 |
| A11G A33C | 1.98 |
| A11G A33G | 0.84 |
| C10A A69G | 0.29 |
| A11G A22U | 1.75 |
| A11C A114U | 0.09 |
| A11C A27U | 1.24 |

— the RNAGym collection of RNA variant scans (doi:10.7554/elife.90254)
